Target: T1, recombinant human CD70 (AviTag, polyhistidine tag and chicken tenascin trimerization domain fused to the … (chicken; human, UniProt P10039 110-139, limits assumed)
T1 construct: domain: trimerization domain; Expressed in Expi293, purified by IMAC and SEC; Copies 3 is inferred from the trimerization domain; not shown: AviTag; polyhistidine tag
T1 sequence: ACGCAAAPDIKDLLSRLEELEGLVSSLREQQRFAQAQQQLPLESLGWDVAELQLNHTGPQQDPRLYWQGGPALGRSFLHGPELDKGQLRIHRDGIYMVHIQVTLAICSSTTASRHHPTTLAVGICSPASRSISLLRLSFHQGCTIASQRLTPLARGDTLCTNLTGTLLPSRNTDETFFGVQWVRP
Assay: SPR (Biacore 8K, 37 C): CD70 captured via anti-AviTag antibody on C1 chip, scFv-Fc as analyte; 1:1 Langmuir fit
Procedure: The antibody binding kinetics were determined by surface plasmon resonance (Biacore 8K, GE Healthcare Bio-Sciences, Pittsburgh Pa.) at 37° C. in HBS-T+ (0.01 M HEPES pH 7.4, 0.15 M NaCl, 0.05% v/v Tween20, 1 mg/mL BSA). Recombinant human CD70 diluted in HBS-T+ was captured on a C1 chip immobilized with an anti-AviTag™ antibody. Purified anti-CD70 scFv-Fc fusions were serially diluted into HBS-T+, injected at 30 uL/min for 2-4 min, dissociation monitored for 10 min then the surface regenerated with 75 mM phosphoric acid between injections. Buffer cycles were collected for each anti-CD70 scFv-Fc fusion for double-referencing purposes (double-referencing as described in Myszka, D. G. Improving biosensor analysis. J. Mol. Recognit. 12, 279-284 (1999)). Kinetic association rates (kₒₙ) and dissociation rates (koff) were obtained simultaneously by fitting the double-referenced sensorgrams globally to a 1:1 Langmuir with mass transport model using Biacore 8K Evaluation Software (GE Healthcare Bio-Sciences, Pittsburgh Pa.) then used to calculate an equilibrium dissociation constant (KD) from the kinetic rate constants (KD=koff/kₒₙ). The data was fit to a 1:1 steady state affinity model using Biacore 8K Evaluation Software to determine a steady state equilibrium dissociation constant (SS KD) as needed.

Binder	Kd [nM]	koff [s⁻¹]	kon [M⁻¹ s⁻¹]	t1/2 [min]
P08G02 anti-CD70 scFv-Fc fusion (Fc fusion, scFv-Fc expressed in Expi293; not shown: part of the hinge and Fc from a modified human IgG2) EVQLVQSGAEVKKPGESLKISCKGSGYTFPSSWIGWVRQMPGKGLEWMGIIYPDTSHTRYSPSFQGQVTISADKSISTAYLQWSSLKASDTAMYYCARASYFDRGTGYSSWWMDVWGQGTLVTVSSGGGGSGGGGSGGGGSGGGGSELDIQMTQSPSSLSASVGDRVTITCRASQSIYDYLHWYQQKPGKAPKLLIYDASNLQSGVPSRFSGSGSGTDFTLTISSLQPEDFATYYCQQSYTTPLFTFGQGTKVEIK	330	0.00788	23900	1.5
12D7 anti-CD70 scFv-Fc fusion (Fc fusion, scFv-Fc expressed in Expi293; not shown: part of the hinge and Fc from a modified human IgG2) QVQLVESGGGVVQPGRSLRLSCVASGFTFSDYGIHWVRQAPGMGQEWVAVIWYDGSIKKYSDSVKGRFIISRDNSENTVYLQMNSLRGEDTAIYYCARDEVGTFGAFDFWGQGTKVTVSSGGGGSGGGGSGGGGSGGGGSDIQLTQSPSFLSASVGDRVSITCRASQDISSFLAWYQQKPGKAPVLLIYVASTLQSGVPSRFSGSGSGTEFTLTVSSLQPEDFATYYCQQLHVYPITFGQGTRLEIR	1.7	0.000755	441000	15.3
11E1 anti-CD70 scFv-Fc fusion (Fc fusion, scFv-Fc expressed in Expi293; not shown: part of the hinge and Fc from a modified human IgG2) QVQLQESGPGLVKPLQTLSLTCTVSGGSISSDGYYWSWIRQNPGKGLEWIGYMYYSGSTYYNPSLKSRVTISVDTSKNQFSLKLRSVTAADTAVYYCTRDFGWYFDLWGRGTLVTVSSGGGGSGGGGSGGGGSGGGGSDIQMTQSPSSLSASVGDSITITCRASQDIDNYLAWYQQKTGKVPKVLIYAASALQSGVPSRFSGSGSGTDFTLTISSLQPEDVATYYCQNYNSGPRTFGQGTKVEIK	1.7	0.001	578000	11.6
10H10 anti-CD70 scFv-Fc fusion (Fc fusion, scFv-Fc expressed in Expi293; not shown: part of the hinge and Fc from a modified human IgG2) EVQLVESGGGLVQPGGSLRLSCAVSGFTFSNHNIHWVRQAPGKGLEWISYISRSSSTIYYADSVKGRFTISRDNAKNSLYLQMNSLRDEDTAVYYCARDHAQWYGMDVWGQGTTVTVSSGGGGSGGGGSGGGGSGGGGSDIQMTQSPSSVSASVGDRVTITCRASQGISSWLAWYQQKPGKAPKVLIYAASSLQSGVPSRFSGSGSGTDFTLTISSLQPEDFATYYCQQAFSFPFTFGPGTKVDIK	69.3	0.0032	46200	3.6
P08F08 anti-CD70 scFv-Fc fusion (Fc fusion, scFv-Fc expressed in Expi293; not shown: part of the hinge and Fc from a modified human IgG2) EVQLVQSGAEVKKPGESLKISCKGSGYGFTSYWIGWVRQMPGKGLEWMGIIHPDDSDTKYSPSFQGQVTISADKSISTAYLQWSSLKASDTAMYYCASSYLRGLWGGYFDYWGQGTLVTVSSGGGGSGGGGSGGGGSGGGGSELQSVLTQPPSASGTPGQRVTISCSGSSSNIGSNYVNWYQQLPGTAPKLLIYGDYQRPSGVPDRFSGSKSGTSASLAISGLRSEDEADYYCATRDDSLSGSVVFGTGTKLTVL	10.7	0.0153	1.44e+06	0.8
P15D02 anti-CD70 scFv-Fc fusion (Fc fusion, scFv-Fc expressed in Expi293; not shown: part of the hinge and Fc from a modified human IgG2) EVQLVQSGAEVKKPGESLKISCKGSGYSFASYWIGWVRQMPGKGLEWMGVIYPGTSETRYSPSFQGQVTISADKSISTAYLQWSSLKASDTAMYYCAKGLSASASGYSFQYWGQGTLVTVSSGGGGSGGGGSGGGGSGGGGSELDIQMTQSPSSLSASVGDRVTITCRASQSIDTYLNWYQQKPGKAPKLLIYSASSLHSGVPSRFSGSGSGTDFTLTISSLQPEDFATYYCQQSYSTTAWTFGQGTKVEIK	< 0.3	< 8.05e-05	286000	> 136
11C1 anti-CD70 scFv-Fc fusion (Fc fusion, scFv-Fc expressed in Expi293; not shown: part of the hinge and Fc from a modified human IgG2) QVQLQESGPGLVKPSETLSLNCTVSGGSISYYYWTWIRQPPGKGLEWIGHVIYSGTTNYNPSLKSRVTISVDTSKNQFSLKLNSVTAADTAVYYCVRAEGSLDAFDLWGQGTMVTVSSGGGGSGGGGSGGGGSGGGGSDIQMTQSPSILSASVGDRVTITCRASQSVSSWLAWYQQKPGKAPKVLIYKASSLESGVPSRFSGTGSGTEFTLTISSLQSDDFATYYCQQYNTYSHTFGQGTKLEIK	0.8	0.000186	224000	62.2
10A1 anti-CD70 scFv-Fc fusion (Fc fusion, scFv-Fc expressed in Expi293; not shown: part of the hinge and Fc from a modified human IgG2) QVQLQESGPGLVKPSETLSLTCTVSGGSISYYYWTWIRQPPGKGLEWIGHIYYSGSTNYNPSLKSRVTISIDTSKNLFSLKLSSVTAADTAVYYCARAEGSLDAFDFWGQGTMVTVSSGGGGSGGGGSGGGGSGGGGSDIQMTQSPSTLSASVGDRVTITCRASQSISTWLAWYQQKPGKAPKVLIYKASSLESGVPSRFSGSGSGTEFILTINSLQPDDFASYYCQQYKSYSHTFGQGTKLEIK	1.3	0.000773	577000	14.9
4F11 anti-CD70 scFv-Fc fusion (Fc fusion, scFv-Fc expressed in Expi293; not shown: part of the hinge and Fc from a modified human IgG2) QVTLKESGPVLVKPTETLTLTCTVSGFSLSNARMGVTWIRQPPGKALEWLAHIFSNDEKSYSTSLKSRLTISKDTSKTQVVLTMTNMDPVDTATYYCARIRDYYDISSYYDYWGQGTLVSVSSGGGGSGGGGSGGGGSGGGGSDIQMTQSPSAMSASVGDRVTITCRASQDISNYLAWFQQKPGKVPKRLIYAASSLQSGVPSRFSGSGSGTEFTLTISSLLPEDFATYYCLQLNSFPFTFGGGTKVEIN	1.9	0.0016	825000	7.2
P08E02 anti-CD70 scFv-Fc fusion (Fc fusion, scFv-Fc expressed in Expi293; not shown: part of the hinge and Fc from a modified human IgG2) EVQLVQSGAEVKKPGESLKISCKGSGYSFTSSWIGWVRQMPGKGLEWMGIIYPGDSDTRYSPSFQGQVTISADKSISTAYLQWSSLKASDTAMYYCAKGLSQAMTGFGFDYWGQGTLVTVSSGGGGSGGGGSGGGGSGGGGSELDIQMTQSPSSLSASVGDRVTITCRASQSISRYLNWYQQKPGKAPKLLIYAASILQTGVPSRFSGSGSGTDFTLTISSLQPEDFATYYCQQSYSTTMWTFGQGTKVEIK	5.3	0.00438	823000	2.6
12D6 anti-CD70 scFv-Fc fusion (Fc fusion, scFv-Fc expressed in Expi293; not shown: part of the hinge and Fc from a modified human IgG2) QVQLQESGPGLVKPSQTLSLTCTVSGGSISSDAYYWSWIRQHPGKGLEWIGYMYYSGITYYNPSLKSRVTISVDTSKNQFSLKLSSVTAADTAVYYCARDFGWYFDLWGRGTLVTVSSGGGGSGGGGSGGGGSGGGGSDIQMTQSPSSLSASVGDRVTITCRASQDISNYLAWYQQKPGKVPKLLIYAASTLHSGVPSRFSGSGSGTDFTLTISSLQPDDFAAYYCQKYNSAPRTFGQGTKVEIK	27.3	0.00194	71200	5.9
9E10 anti-CD70 scFv-Fc fusion (Fc fusion, scFv-Fc expressed in Expi293; not shown: part of the hinge and Fc from a modified human IgG2) QVQLVQSGAEVTKPGASVKVSCKASGYTFTSHYIYWVRQAPGQGLEWMGWINPNSGGTNYAQKFQDRVTMARDTSISTAYMELSRLRSDDTAVYYCAKDRKREYYYNFGMDVWGQGTTVTVSAGGGGSGGGGSGGGGSGGGGSDIQMTQSPSSLSASVGDRVILTCQASQDISNYLHWYQQKPGKAPKLLIYDASDLETGVPSRFSGSGSGADFTFTISNLQPEDFATYYCQQYDHLPITFGQGTRLEIK	2.6	0.00212	825000	5.4
P12B09 anti-CD70 scFv-Fc fusion (Fc fusion, scFv-Fc expressed in Expi293; not shown: part of the hinge and Fc from a modified human IgG2) EVQLLESGGGLVQPGGSLRLSCAASGFTFSQYSMSWVRQAPGKGLEWVSAISGGGVSTYYADSVKGRFTISRDNSKNTLYLQMNSLRAEDTAVYYCASDISDSGGSHWYFDYWGQGTLVTVSSGGGGSGGGGSGGGGSGGGGSELDIQMTQSPSSLSASVGDRVTITCRASQYIGRYLNWYQQKRGKAPKLLIHGATSLASGVPSRFSGSGSGTDFTLTISSLQPEDFATYYCQQSYSTTSPTFGQGTKVEIK	4.1	0.00135	330000	8.6
12C4 anti-CD70 scFv-Fc fusion (Fc fusion, scFv-Fc expressed in Expi293; not shown: part of the hinge and Fc from a modified human IgG2) QVQLVQSGAEVKKPGASVKVSCKASGYTFTGYYLHWVRQAPGQGLEWMGWINPNSGGTNYAQKFQGRVTMTRDTSITTAYMELSRLRIDDTAVYYCARDRGVTMIVDGMDDWGQGTTVTVSSGGGGSGGGGSGGGGSGGGGSDIVMTQSPLSLPVTPGEPASISCRSSQSLLHSNGYNYLDWYLQKPGQSPQVLILLGSNRASGVPDRVSASGSGTDFTLKISRMQAEDVGIYYCMQTLQTPFTFGQGTKLEIK	0.3	0.000455	1.56e+06	25.3
8C8 anti-CD70 scFv-Fc fusion (Fc fusion, scFv-Fc expressed in Expi293; not shown: part of the hinge and Fc from a modified human IgG2) EVQLVESGGGLVKPGGSLRLSCVASGFTFSSYSMNWVRQFPGKGLEWVSSISTSSNYIHYADSLQGRFTISRDNAKNSLYLQMSSLRVEDTAVYYCVRDKGTTLTNWYFDLWGRGTLVTVSSGGGGSGGGGSGGGGSGGGGSDMQMTQSPSSLSASVGDRVTLTCRASQGISNYLAWFQLKPGKVPKLLIYAASTLQSGVPSRFSGSGSGTDFALTISSLQPEDVATYYCQKYNSAPLTFGGGTKVEIK	15.4	0.00159	103000	7.3

Reference: patent US20190233528A1 (published 2019)
